Consider five substances from patent publication US20070196860.

In series [1] the test system is SEQ ID NO. 41, Ac-SxPGSDDDDD-NH2.
The subject of series [2] is SEQ ID NO. 27, Ac-SxPGSFRRR-NH2.
For series [3], the system named is SEQ ID NO. 30, Ac-ALKLSRYPSFdPSxG-NH2.
For series [4], the system named is SEQ ID NO. 48, Ac-EEEEYIQdPSxG-NH2.
The subject of series [5] is SEQ ID NO. 42, Ac-SxPGIYAAPFAKKK-NH2.

Chain of MK2 enzyme (P49137 whole entry): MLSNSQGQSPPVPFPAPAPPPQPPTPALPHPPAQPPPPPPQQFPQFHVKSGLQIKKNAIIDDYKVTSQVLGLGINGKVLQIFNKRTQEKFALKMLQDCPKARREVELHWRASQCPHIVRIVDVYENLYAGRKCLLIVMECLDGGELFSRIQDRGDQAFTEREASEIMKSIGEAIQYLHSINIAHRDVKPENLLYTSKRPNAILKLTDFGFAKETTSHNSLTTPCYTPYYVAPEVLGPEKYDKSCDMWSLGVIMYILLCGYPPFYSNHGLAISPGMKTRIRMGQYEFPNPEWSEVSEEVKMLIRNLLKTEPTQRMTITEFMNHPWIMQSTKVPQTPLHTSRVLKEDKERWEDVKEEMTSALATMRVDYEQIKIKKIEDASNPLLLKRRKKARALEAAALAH

Erk1/2 kinase: in series [1], the “reaction rate, PDGF-treated NIH3T3 lysate” value is given as “The PDGF-treated sample showed a reaction rate of 1.55 RFU/sec” and the “reaction rate, control treated NIH3T3 lysate” value is “the control treated sample had a markedly reduced rate of 0.27 RFU/sec”.

As for MK2 enzyme, in series [2], the “fluorescence signal at plateau; cascade reaction started by B-Raf captured from NGF-treated PC12 lysate” value was “fluorescence signals that reached a plateau at 150 minutes of incubation (3200 RFU)”, the “fluorescence signal at plateau; cascade reaction started by ERK1/2 captured from PDGF-treated NIH3T3 lysate” value is “a fluorescence signal of 3000 RFU that reached a plateau at 335 minutes of incubation”, the “fluorescence signal at plateau; cascade reaction started by MEK1 captured from PDGF-treated NIH3T3 lysate” value is given as “fluorescence signal of 3650 RFU that reached a plateau at 250 minutes of incubation” and the “fluorescence signal at plateau; cascade reaction started by p38 MAPK captured from anisomycin treated RAW lysate” value is given as “fluorescence signal of 3350 RFU that reached a plateau at 60 minutes of incubation”. For the same substance, in series [2], the “fluorescence signal; cascade reaction started by ERK1/2 captured from control NIH3T3 lysate” value is on record as “the control group produced fluorescence signal of 845 RFU”, the “fluorescence signal; cascade reaction started by MEK1 captured from control NIH3T3 lysate” value is “the control group produced fluorescence signal of 1050 RFU” and the “fluorescence signal; cascade reaction started by p38 MAPK captured from control RAW lysate” value was “the control group produced fluorescence signal of 1250 RFU”.

For the substance RSK, in series [3], the “reaction rate, PMA-treated HeLa lysate” value is “The PMA-treated sample showed a reaction rate of 3.17 RFU/sec” and the “reaction rate, control treated HeLa lysate” value was “the control treated sample had a markedly reduced rate of 0.64 RFU/sec”.

As to c-Src, in series [4], the “reaction rate, c-Src transfected CEF lysate” value is “The c-Src transfected CEF sample showed a reaction rate of 50 RFU/sec” and the “reaction rate, mock transfected (control) CEF lysate” value is recorded as “the control treated sample had a markedly reduced rate of 0.048 RFU/sec”.

As to p70-S6K, in series [5], the “reaction rate, control treated MCF-7 lysate” value is recorded as “the control treated sample had a markedly reduced rate of 0.12 RFU/sec” and the “reaction rate, insulin-treated MCF-7 lysate” value is given as “The insulin-treated sample showed a reaction rate of 1.13 RFU/sec”.
